Experimental data taken from patent US20150344570A1 (published 2015).

Legend:
[1] = molecular target: T1, FcγRIa extracellular domain with C-terminal His tag (human, UniProt P12314 16-292); experiment: SPR (Biacore), captured antibody, FcγR as analyte; relative binding
T1 construct: extracellular domain; expressed in FreeStyle293 cells; analyte in Biacore; also called FcgRI; 1a

[2] = molecular target: T2, FcγRIIb extracellular domain with C-terminal His tag (human, UniProt P31994 43-217); experiment: as above
T2 construct: extracellular domain; expressed in FreeStyle293 cells; analyte in Biacore; also called FcgRIIb; 2b
T2 sequence (looked up): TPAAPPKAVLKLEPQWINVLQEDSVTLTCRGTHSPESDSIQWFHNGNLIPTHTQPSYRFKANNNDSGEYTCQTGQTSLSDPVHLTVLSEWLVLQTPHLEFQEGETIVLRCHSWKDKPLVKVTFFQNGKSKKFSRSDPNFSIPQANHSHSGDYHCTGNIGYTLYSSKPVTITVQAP

T1 sequence (P12314 16-292): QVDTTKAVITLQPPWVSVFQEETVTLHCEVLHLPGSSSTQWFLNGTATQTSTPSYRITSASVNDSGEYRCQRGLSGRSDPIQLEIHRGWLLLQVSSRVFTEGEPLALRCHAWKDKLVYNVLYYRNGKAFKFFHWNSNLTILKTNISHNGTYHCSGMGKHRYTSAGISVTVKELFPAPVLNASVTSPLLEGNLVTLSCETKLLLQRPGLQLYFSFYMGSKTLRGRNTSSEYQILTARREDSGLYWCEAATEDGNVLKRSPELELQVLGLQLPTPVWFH

He/Con_1a [1] | He/Con_2b [2] | Binder
105 % of HeCon Ab (GpH7-A5/GpH7-B3/GpL16-k0 = 100) | 88.2 % of HeCon Ab (GpH7-A5/GpH7-B3/GpL16-k0 = 100) | GpH7-A5/GpH7-B3 variant Y296_14T/GpL16-k0 (antibody, human IgG1, kappa, He Ab; IgG1, mutation in one H chain) heavy 1: not shown heavy 2: not shown light: DIVMTQSPLSLPVTPGEPASISCQASESLVHSNRNTYLHWYLQKPGQSPQLLIYKVSNRFSGVPDRFSGSGSGTDFTLKISRVEAEDVGVYYCSQNTHVPPTFGQGTKVEIERTVAAPSVFIFPPSDEQLKSGTASVVCLLNNFYPREAKVQWKVDNALQSGNSQESVTEQDSKDSTYSLSSTLTLSKADYEKHKVYACEVTHQGLSSPVTKSFNRGEC
106 % of HeCon Ab (GpH7-A5/GpH7-B3/GpL16-k0 = 100) | 91.5 % of HeCon Ab (GpH7-A5/GpH7-B3/GpL16-k0 = 100) | GpH7-A5/GpH7-B3 variant Y296_18N/GpL16-k0 (antibody, human IgG1, kappa, He Ab; IgG1, mutation in one H chain) heavy 1: not shown heavy 2: not shown light: DIVMTQSPLSLPVTPGEPASISCQASESLVHSNRNTYLHWYLQKPGQSPQLLIYKVSNRFSGVPDRFSGSGSGTDFTLKISRVEAEDVGVYYCSQNTHVPPTFGQGTKVEIERTVAAPSVFIFPPSDEQLKSGTASVVCLLNNFYPREAKVQWKVDNALQSGNSQESVTEQDSKDSTYSLSSTLTLSKADYEKHKVYACEVTHQGLSSPVTKSFNRGEC
112 % of HeCon Ab (GpH7-A5/GpH7-B3/GpL16-k0 = 100) | 89.3 % of HeCon Ab (GpH7-A5/GpH7-B3/GpL16-k0 = 100) | GpH7-A5/GpH7-B3 variant Y296_19Q/GpL16-k0 (antibody, human IgG1, kappa, He Ab; IgG1, mutation in one H chain) heavy 1: not shown heavy 2: not shown light: DIVMTQSPLSLPVTPGEPASISCQASESLVHSNRNTYLHWYLQKPGQSPQLLIYKVSNRFSGVPDRFSGSGSGTDFTLKISRVEAEDVGVYYCSQNTHVPPTFGQGTKVEIERTVAAPSVFIFPPSDEQLKSGTASVVCLLNNFYPREAKVQWKVDNALQSGNSQESVTEQDSKDSTYSLSSTLTLSKADYEKHKVYACEVTHQGLSSPVTKSFNRGEC
107 % of HeCon Ab (GpH7-A5/GpH7-B3/GpL16-k0 = 100) | 51.6 % of HeCon Ab (GpH7-A5/GpH7-B3/GpL16-k0 = 100) | GpH7-A5/GpH7-B3 variant Y300_11K/GpL16-k0 (antibody, human IgG1, kappa, He Ab; IgG1, mutation in one H chain) heavy 1: not shown heavy 2: not shown light: DIVMTQSPLSLPVTPGEPASISCQASESLVHSNRNTYLHWYLQKPGQSPQLLIYKVSNRFSGVPDRFSGSGSGTDFTLKISRVEAEDVGVYYCSQNTHVPPTFGQGTKVEIERTVAAPSVFIFPPSDEQLKSGTASVVCLLNNFYPREAKVQWKVDNALQSGNSQESVTEQDSKDSTYSLSSTLTLSKADYEKHKVYACEVTHQGLSSPVTKSFNRGEC
108 % of HeCon Ab (GpH7-A5/GpH7-B3/GpL16-k0 = 100) | 74.5 % of HeCon Ab (GpH7-A5/GpH7-B3/GpL16-k0 = 100) | GpH7-A5/GpH7-B3 variant Y300_07I/GpL16-k0 (antibody, human IgG1, kappa, He Ab; IgG1, mutation in one H chain) heavy 1: not shown heavy 2: not shown light: DIVMTQSPLSLPVTPGEPASISCQASESLVHSNRNTYLHWYLQKPGQSPQLLIYKVSNRFSGVPDRFSGSGSGTDFTLKISRVEAEDVGVYYCSQNTHVPPTFGQGTKVEIERTVAAPSVFIFPPSDEQLKSGTASVVCLLNNFYPREAKVQWKVDNALQSGNSQESVTEQDSKDSTYSLSSTLTLSKADYEKHKVYACEVTHQGLSSPVTKSFNRGEC
106 % of HeCon Ab (GpH7-A5/GpH7-B3/GpL16-k0 = 100) | 92.2 % of HeCon Ab (GpH7-A5/GpH7-B3/GpL16-k0 = 100) | GpH7-A5/GpH7-B3 variant Y296_16H/GpL16-k0 (antibody, human IgG1, kappa, He Ab; IgG1, mutation in one H chain) heavy 1: not shown heavy 2: not shown light: DIVMTQSPLSLPVTPGEPASISCQASESLVHSNRNTYLHWYLQKPGQSPQLLIYKVSNRFSGVPDRFSGSGSGTDFTLKISRVEAEDVGVYYCSQNTHVPPTFGQGTKVEIERTVAAPSVFIFPPSDEQLKSGTASVVCLLNNFYPREAKVQWKVDNALQSGNSQESVTEQDSKDSTYSLSSTLTLSKADYEKHKVYACEVTHQGLSSPVTKSFNRGEC
111 % of HeCon Ab (GpH7-A5/GpH7-B3/GpL16-k0 = 100) | 53.9 % of HeCon Ab (GpH7-A5/GpH7-B3/GpL16-k0 = 100) | GpH7-A5/GpH7-B3 variant Y300_13S/GpL16-k0 (antibody, human IgG1, kappa, He Ab; IgG1, mutation in one H chain) heavy 1: not shown heavy 2: not shown light: DIVMTQSPLSLPVTPGEPASISCQASESLVHSNRNTYLHWYLQKPGQSPQLLIYKVSNRFSGVPDRFSGSGSGTDFTLKISRVEAEDVGVYYCSQNTHVPPTFGQGTKVEIERTVAAPSVFIFPPSDEQLKSGTASVVCLLNNFYPREAKVQWKVDNALQSGNSQESVTEQDSKDSTYSLSSTLTLSKADYEKHKVYACEVTHQGLSSPVTKSFNRGEC
112 % of HeCon Ab (GpH7-A5/GpH7-B3/GpL16-k0 = 100) | 84.3 % of HeCon Ab (GpH7-A5/GpH7-B3/GpL16-k0 = 100) | GpH7-A5/GpH7-B3 variant Y300_06M/GpL16-k0 (antibody, human IgG1, kappa, He Ab; IgG1, mutation in one H chain) heavy 1: not shown heavy 2: not shown light: DIVMTQSPLSLPVTPGEPASISCQASESLVHSNRNTYLHWYLQKPGQSPQLLIYKVSNRFSGVPDRFSGSGSGTDFTLKISRVEAEDVGVYYCSQNTHVPPTFGQGTKVEIERTVAAPSVFIFPPSDEQLKSGTASVVCLLNNFYPREAKVQWKVDNALQSGNSQESVTEQDSKDSTYSLSSTLTLSKADYEKHKVYACEVTHQGLSSPVTKSFNRGEC
105 % of HeCon Ab (GpH7-A5/GpH7-B3/GpL16-k0 = 100) | 41.2 % of HeCon Ab (GpH7-A5/GpH7-B3/GpL16-k0 = 100) | GpH7-A5/GpH7-B3 variant Y300_12R/GpL16-k0 (antibody, human IgG1, kappa, He Ab; IgG1, mutation in one H chain) heavy 1: not shown heavy 2: not shown light: DIVMTQSPLSLPVTPGEPASISCQASESLVHSNRNTYLHWYLQKPGQSPQLLIYKVSNRFSGVPDRFSGSGSGTDFTLKISRVEAEDVGVYYCSQNTHVPPTFGQGTKVEIERTVAAPSVFIFPPSDEQLKSGTASVVCLLNNFYPREAKVQWKVDNALQSGNSQESVTEQDSKDSTYSLSSTLTLSKADYEKHKVYACEVTHQGLSSPVTKSFNRGEC
113 % of HeCon Ab (GpH7-A5/GpH7-B3/GpL16-k0 = 100) | 73.6 % of HeCon Ab (GpH7-A5/GpH7-B3/GpL16-k0 = 100) | GpH7-A5/GpH7-B3 variant Y300_08L/GpL16-k0 (antibody, human IgG1, kappa, He Ab; IgG1, mutation in one H chain) heavy 1: not shown heavy 2: not shown light: DIVMTQSPLSLPVTPGEPASISCQASESLVHSNRNTYLHWYLQKPGQSPQLLIYKVSNRFSGVPDRFSGSGSGTDFTLKISRVEAEDVGVYYCSQNTHVPPTFGQGTKVEIERTVAAPSVFIFPPSDEQLKSGTASVVCLLNNFYPREAKVQWKVDNALQSGNSQESVTEQDSKDSTYSLSSTLTLSKADYEKHKVYACEVTHQGLSSPVTKSFNRGEC
117 % of HeCon Ab (GpH7-A5/GpH7-B3/GpL16-k0 = 100) | 73.9 % of HeCon Ab (GpH7-A5/GpH7-B3/GpL16-k0 = 100) | GpH7-A5/GpH7-B3 variant Y300_03V/GpL16-k0 (antibody, human IgG1, kappa, He Ab; IgG1, mutation in one H chain) heavy 1: not shown heavy 2: not shown light: DIVMTQSPLSLPVTPGEPASISCQASESLVHSNRNTYLHWYLQKPGQSPQLLIYKVSNRFSGVPDRFSGSGSGTDFTLKISRVEAEDVGVYYCSQNTHVPPTFGQGTKVEIERTVAAPSVFIFPPSDEQLKSGTASVVCLLNNFYPREAKVQWKVDNALQSGNSQESVTEQDSKDSTYSLSSTLTLSKADYEKHKVYACEVTHQGLSSPVTKSFNRGEC
112 % of HeCon Ab (GpH7-A5/GpH7-B3/GpL16-k0 = 100) | 93.2 % of HeCon Ab (GpH7-A5/GpH7-B3/GpL16-k0 = 100) | GpH7-A5/GpH7-B3 variant Y300_09D/GpL16-k0 (antibody, human IgG1, kappa, He Ab; IgG1, mutation in one H chain) heavy 1: not shown heavy 2: not shown light: DIVMTQSPLSLPVTPGEPASISCQASESLVHSNRNTYLHWYLQKPGQSPQLLIYKVSNRFSGVPDRFSGSGSGTDFTLKISRVEAEDVGVYYCSQNTHVPPTFGQGTKVEIERTVAAPSVFIFPPSDEQLKSGTASVVCLLNNFYPREAKVQWKVDNALQSGNSQESVTEQDSKDSTYSLSSTLTLSKADYEKHKVYACEVTHQGLSSPVTKSFNRGEC
112 % of HeCon Ab (GpH7-A5/GpH7-B3/GpL16-k0 = 100) | 69.2 % of HeCon Ab (GpH7-A5/GpH7-B3/GpL16-k0 = 100) | GpH7-A5/GpH7-B3 variant Y300_02A/GpL16-k0 (antibody, human IgG1, kappa, He Ab; IgG1, mutation in one H chain) heavy 1: not shown heavy 2: not shown light: DIVMTQSPLSLPVTPGEPASISCQASESLVHSNRNTYLHWYLQKPGQSPQLLIYKVSNRFSGVPDRFSGSGSGTDFTLKISRVEAEDVGVYYCSQNTHVPPTFGQGTKVEIERTVAAPSVFIFPPSDEQLKSGTASVVCLLNNFYPREAKVQWKVDNALQSGNSQESVTEQDSKDSTYSLSSTLTLSKADYEKHKVYACEVTHQGLSSPVTKSFNRGEC
112 % of HeCon Ab (GpH7-A5/GpH7-B3/GpL16-k0 = 100) | 55.6 % of HeCon Ab (GpH7-A5/GpH7-B3/GpL16-k0 = 100) | GpH7-A5/GpH7-B3 variant Y300_14T/GpL16-k0 (antibody, human IgG1, kappa, He Ab; IgG1, mutation in one H chain) heavy 1: not shown heavy 2: not shown light: DIVMTQSPLSLPVTPGEPASISCQASESLVHSNRNTYLHWYLQKPGQSPQLLIYKVSNRFSGVPDRFSGSGSGTDFTLKISRVEAEDVGVYYCSQNTHVPPTFGQGTKVEIERTVAAPSVFIFPPSDEQLKSGTASVVCLLNNFYPREAKVQWKVDNALQSGNSQESVTEQDSKDSTYSLSSTLTLSKADYEKHKVYACEVTHQGLSSPVTKSFNRGEC
116 % of HeCon Ab (GpH7-A5/GpH7-B3/GpL16-k0 = 100) | 48.4 % of HeCon Ab (GpH7-A5/GpH7-B3/GpL16-k0 = 100) | GpH7-A5/GpH7-B3 variant Y300_01G/GpL16-k0 (antibody, human IgG1, kappa, He Ab; IgG1, mutation in one H chain) heavy 1: not shown heavy 2: not shown light: DIVMTQSPLSLPVTPGEPASISCQASESLVHSNRNTYLHWYLQKPGQSPQLLIYKVSNRFSGVPDRFSGSGSGTDFTLKISRVEAEDVGVYYCSQNTHVPPTFGQGTKVEIERTVAAPSVFIFPPSDEQLKSGTASVVCLLNNFYPREAKVQWKVDNALQSGNSQESVTEQDSKDSTYSLSSTLTLSKADYEKHKVYACEVTHQGLSSPVTKSFNRGEC
